This note sets out measurements from patent US20260216326A1 (PROMETHEUS BIOSCIENCES, published 2026).

Assay [1] deals with T1, human TL1A (human, UniProt O95150 72-251, limits assumed).
T1 construct: also called tumor necrosis factor-like cytokine 1A; TNFSF15
T1 sequence (looked up): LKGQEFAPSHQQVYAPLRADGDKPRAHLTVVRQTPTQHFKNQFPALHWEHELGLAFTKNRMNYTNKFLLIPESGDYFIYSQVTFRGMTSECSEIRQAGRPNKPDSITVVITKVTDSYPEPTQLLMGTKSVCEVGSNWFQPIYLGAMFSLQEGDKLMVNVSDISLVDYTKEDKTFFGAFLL
Description: ELISA titration on plate-coated human TL1A, unpurified culture supernatant.

For assay [2], the target named is T2, TL1A in human blood (human, UniProt O95150 72-251, limits assumed).
T2 sequence (looked up): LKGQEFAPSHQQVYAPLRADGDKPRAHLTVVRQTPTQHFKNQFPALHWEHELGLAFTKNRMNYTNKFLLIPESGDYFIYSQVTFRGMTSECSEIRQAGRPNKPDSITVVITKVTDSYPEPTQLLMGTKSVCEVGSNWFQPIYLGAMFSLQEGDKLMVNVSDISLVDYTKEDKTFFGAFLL
As to the kind of experiment: cell-based or functional assay.

The target in assay [3] is T2, TL1A in human blood. Description: cell-based or functional assay. This is another data set of the same source.
Assay [4] addresses T3, Cynomolgus TL1A (cynomolgus monkey, UniProt G7PRK8 72-251).
T3 construct: also called cynomolgus monkey TL1A
T3 sequence: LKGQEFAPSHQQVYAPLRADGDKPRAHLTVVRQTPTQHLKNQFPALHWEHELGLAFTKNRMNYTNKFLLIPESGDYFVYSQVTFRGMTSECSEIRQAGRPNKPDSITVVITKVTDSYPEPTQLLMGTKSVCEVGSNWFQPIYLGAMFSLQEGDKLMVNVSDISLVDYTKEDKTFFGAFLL
As to the kind of experiment: method not given; three independent measurements, +/- standard deviation.

The target of assay [5] is T1, human TL1A. The assay is described as above.
Assay [6] addresses T4, TNFSF6 (FasL) (human, UniProt P48023 134-281, limits assumed).
T4 sequence (looked up): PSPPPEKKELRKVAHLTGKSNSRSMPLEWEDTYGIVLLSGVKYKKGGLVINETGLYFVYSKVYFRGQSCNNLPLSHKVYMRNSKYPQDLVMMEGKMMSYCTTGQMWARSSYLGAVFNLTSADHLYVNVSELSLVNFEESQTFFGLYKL
As to the kind of experiment: not named in the table (specificity row). The text has this:
(§1) TL1A is the only known ligand for its functional receptor DR3. TL1A is also capable of binding to Decoy receptor 3 (DcR3), a soluble TNF receptor without a transmembrane domain.

For assay [7], the target named is T5, TNFSF10 (human, UniProt P50591 114-281, limits assumed).
T5 construct: also called TRAIL
T5 sequence (P50591 114-281 limits assumed): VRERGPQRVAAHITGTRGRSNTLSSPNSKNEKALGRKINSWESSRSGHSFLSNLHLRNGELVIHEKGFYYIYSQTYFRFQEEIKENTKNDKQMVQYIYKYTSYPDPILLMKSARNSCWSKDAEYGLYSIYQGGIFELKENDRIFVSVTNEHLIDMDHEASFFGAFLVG
Description: not named in the table (specificity row).
Description: as §1

Assay [8] concerns the target T6, Murine TL1A (mouse, UniProt Q5UBV8 76-252, limits assumed).
T6 construct: also called mouse TL1A
T6 sequence (looked up): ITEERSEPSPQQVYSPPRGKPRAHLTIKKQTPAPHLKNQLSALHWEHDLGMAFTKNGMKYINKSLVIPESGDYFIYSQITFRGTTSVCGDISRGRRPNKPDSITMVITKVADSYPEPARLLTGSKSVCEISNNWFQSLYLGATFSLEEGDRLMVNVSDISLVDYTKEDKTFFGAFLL
As to the kind of experiment: not named in the table (TL1A binding affinity row).

The target of assay [9] is T7, DR3 (Death Receptor 3) natively expressed on human TF-1 cells (human, UniProt Q93038 25-417).
T7 construct: whole, on cells; also called TNFRSF25
T7 sequence (looked up): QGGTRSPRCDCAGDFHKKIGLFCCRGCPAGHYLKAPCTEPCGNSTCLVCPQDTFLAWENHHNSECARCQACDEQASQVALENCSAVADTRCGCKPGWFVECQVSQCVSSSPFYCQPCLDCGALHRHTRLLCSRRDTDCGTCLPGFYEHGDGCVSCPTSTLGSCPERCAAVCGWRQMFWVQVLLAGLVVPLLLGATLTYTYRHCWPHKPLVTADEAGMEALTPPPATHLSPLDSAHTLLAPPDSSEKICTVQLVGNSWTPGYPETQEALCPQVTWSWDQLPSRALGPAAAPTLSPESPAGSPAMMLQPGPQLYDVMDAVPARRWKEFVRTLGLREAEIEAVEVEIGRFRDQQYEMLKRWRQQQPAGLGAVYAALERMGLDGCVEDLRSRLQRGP
As to the kind of experiment: TF-1 cell caspase activation assay. The source says: TF-1 cells are human erythroleukemic cells that natively express DR3, the functional receptor for TL1A.

The target in assay [10] is T8, recombinant TL1A antigen (UniProt O95150 72-251, limits assumed).
T8 sequence (looked up): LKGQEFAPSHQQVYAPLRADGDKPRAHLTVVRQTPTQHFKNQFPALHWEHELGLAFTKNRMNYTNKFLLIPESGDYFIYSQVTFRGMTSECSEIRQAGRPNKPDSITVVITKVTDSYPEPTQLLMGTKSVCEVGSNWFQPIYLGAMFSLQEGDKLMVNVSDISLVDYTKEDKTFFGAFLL
Description: ELISA titration against recombinant TL1A antigen. A general note: ELISA stands for enzyme-linked immunosorbent assay.

B1: A219 (antibody, V domains shown)
VH: QVQLVQSGAEVKKPGASVKVSCKASGFDIQDTYMHWVKQRPGQGLEWMGRIDPASGHTKYDPKFQVRVTITRDTSTSTVYLELSSLRSEDTAVYYCARSGGLPDVWGQGTTVTVSS
VL: EIVLTQSPGTLSLSPGERATLSCRASSSVSYMYWYQQKPGQAPRPLIYATSNLASGIPDRFSGSGSGTDFTLTISRLEPEDFAVYYCQQWEGNPRTFGGGTKLEIK
notes: IgG1
The Kd is a measure of binding affinity in units of concentration. Low readings indicate higher affinity, high ones lower affinity. By % Inhibition is commonly meant the drop in the measured response relative to a control, in per cent. Lower therefore signals a weak effect. Regarding B1, the Kd was 0.05 nM in [1], 0.0363 nM in assay [4] and 0.059 nM in assay [5]. Moreover, the “% Inhibition at 1 nM Ig; interferon gamma release in human blood” value in assay [2] was found to be 59.8%. Moreover, in assay [2], the “% Inhibition at 10 nM Ig; interferon gamma release in human blood” value worked out at 75.2%. The “IC50 values, Mean; inhibition of interferon gamma release from multiple human donors” value in assay [3] stood at 48.6. The binding result in assay [6], in assay [7] and in [8] was “no binding” in each case.

B2: A220 (antibody, IgG1, V domains shown)
VH: QVQLVQSGAEVKKPGASVKVSCKASGFDIQDTYMHWVKQRPGQGLEWMGRIDPASGHTKYDPKFQVRVTMTRDTSTSTAYLELSSLRSEDTAVYYCARSGGLPDVWGQGTTVTVSS
VL: EIVLTQSPGTLSLSPGERATLSCRASSSVSYMYWYQQKPGQAPRPWIYATSNLASGIPDRFSGSGSGTDFTLTISRLEPEDFAVYYCQQWEGNPRTFGGGTKLEIK
As for B2, the Kd in [1] was determined as 0.05 nM. For the same molecule, in assay [2], the “% Inhibition at 1 nM Ig; interferon gamma release in human blood” value turned out to be 36.9% and the “% Inhibition at 10 nM Ig; interferon gamma release in human blood” value is 63.2%.

B3: recombinant human TL1A protein (tumor necrosis factor-like cytokine 1A) (ligand, UniProt O95150 72-251, looked up)
chain: LKGQEFAPSHQQVYAPLRADGDKPRAHLTVVRQTPTQHFKNQFPALHWEHELGLAFTKNRMNYTNKFLLIPESGDYFIYSQVTFRGMTSECSEIRQAGRPNKPDSITVVITKVTDSYPEPTQLLMGTKSVCEVGSNWFQPIYLGAMFSLQEGDKLMVNVSDISLVDYTKEDKTFFGAFLL
notes: Recombinant protein used in ELISA, SPR and the TF-1 caspase assay; also called TNFSF15; soluble TL1A
B3: in [9], the binding result is listed as “binds”.

B4: anti-TL1A antibody with heavy chain SEQ ID NO: 380 (IgG4, S228P, F234A, L235A; Fc SEQ ID NO: 367) and light chain SEQ ID NO: 381 (antibody)
heavy: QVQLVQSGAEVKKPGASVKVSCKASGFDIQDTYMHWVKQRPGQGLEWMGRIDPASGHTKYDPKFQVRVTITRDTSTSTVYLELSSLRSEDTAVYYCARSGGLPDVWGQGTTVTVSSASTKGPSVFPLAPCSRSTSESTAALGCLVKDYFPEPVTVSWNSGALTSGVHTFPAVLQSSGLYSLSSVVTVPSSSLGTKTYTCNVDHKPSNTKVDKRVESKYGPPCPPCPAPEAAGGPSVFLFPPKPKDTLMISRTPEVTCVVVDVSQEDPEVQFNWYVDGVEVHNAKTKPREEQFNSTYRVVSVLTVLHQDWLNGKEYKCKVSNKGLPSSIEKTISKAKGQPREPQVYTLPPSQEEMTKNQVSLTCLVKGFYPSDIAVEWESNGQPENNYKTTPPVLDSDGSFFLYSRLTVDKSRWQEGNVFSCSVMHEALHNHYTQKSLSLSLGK
light: EIVLTQSPGTLSLSPGERATLSCRASSSVSYMYWYQQKPGQAPRPLIYATSNLASGIPDRFSGSGSGTDFTLTISRLEPEDFAVYYCQQWEGNPRTFGGGTKLEIKRTVAAPSVFIFPPSDEQLKSGTASVVCLLNNFYPREAKVQWKVDNALQSGNSQESVTEQDSKDSTYSLSSTLTLSKADYEKHKVYACEVTHQGLSSPVTKSFNRGEC
Broadly, the EC50 is the concentration giving half of the maximal effect. As for B4, in assay [10], the EC50 was found to be 0.252 nM.
